Laboratory results as given in article PMC5430804, “Structural and biochemical insights of CypA and AIF interaction” (Scientific Reports, 2017).
Blank lines part the entries; values can stand above or below the compound they belong to. *: point of attachment. Dabcyl = CN(C)c1ccc(N=Nc2ccc(C(=O)*)cc2)cc1; EDANS = O=S(=O)(O)c1cccc2c(NCCN*)cccc12

Legend:
AIF(370-394) = molecular target: T1, AIF(370-394) (Homo sapiens, UniProt O95831); experiment: EnSpire label-free direct binding to AIF(370-394); conditions: for KD: Corning Epic/EnSpire label-free, biotinylated AIF(370-394) immobilized on streptavidin-coated biosensor, PBS 1X pH 7.4, readings over 1 hour, means of triplicates; for binding / affinity for AIF(370-394), in words: EnSpire label-free
T1 construct: host or cells: chemical synthesis (synthetic peptide)
Protocol: Although peptide-peptide interaction insights might be prejudiced by the lack of appropriate 3D structures and require additional experimental assessment with full length proteins, they can mimic and anticipate in several cases real interactions. […] KD values determined by this approach are reported in Table 1 and the binding curves are shown in Supplementary Fig. S4.
(§1) Direct binding assays were performed with the Corning Epic label-free technology with the EnSpire Multimode Plate Reader (PerkinElmer, Rodgau, Germany) as reported in literature.1 Briefly, […]
(§2) µg/mL streptavidin solution in 20 mM sodium acetate at pH 4.0, for 16 h at 4 °C. The microplate was subsequently washed three times with phosphate-buffered saline (PBS 1X, pH 7.4). After […]
(§3) assay buffer (PBS 1X, pH 7.4) for 2 hours followed by three washing steps in PBS 1X at pH 7.4.
(§4) After 2 h incubation, a baseline reading was recorded. Then 30 µL of peptide samples were dispensed in the plate. The final readings were taken over a period of 1 hour. Label-free responses were measured as shifts in reflected wavelength and were expressed in picometers (Fig. S4). The difference between the last baseline measurements and the maximum signal was used to determine the KD values (Table 1 in the main text). […]
(§5) biosensor by adding directly 100 µg/mL of protein in 20 mM sodium acetate pH 4.0, for 16 h at 4 […]
(§6) by adding 200 µg/mL of protein in 20 mM sodium acetate pH 5.5, for 16 h at 4 °C. […]
(§7) the procedure described above. Results were analyzed using the EnSpire label-free user interface software. Plots were generated using GraphPad PrismR V-5.01 (GraphPad Software, La Jolla, CA). […]
Graphs were generated using GraphPad PrismR V-5.01 (GraphPad Software, La Jolla, CA). Results are means of triplicates.
(§8) (1 picture or pasted object on this page, not shown here)

AIF(Δ1-121) = AIF(Δ1-121) (Homo sapiens, UniProt O95831); experiment: EnSpire label-free direct binding to AIF(Δ1-121); conditions: for KD: Corning Epic/EnSpire label-free, AIF(Δ1-121) immobilized on biosensor (100 µg/mL, 20 mM sodium acetate pH 4.0), PBS 1X pH 7.4, readings over 1 hour, means of triplicates
Protocol: as §1, §2, §3, §4, §5, §6, §7
Results were analyzed using the EnSpire label-free user interface software. Graphs were generated using GraphPad PrismR V-5.01 (GraphPad Software, La Jolla, CA). Results are means of triplicates.
as §8

CypA and CypA^R55A [1] = experiment: EnSpire label-free binding of AIF to immobilized CypA and CypA^R55A; conditions: CypA and CypAR55A immobilized, means of triplicates
Protocol: as §1, §2, §3, §4
biosensor by adding directly 100 µg/mL of protein in 20 mM sodium acetate pH 4.0, for 16 h at 4 °C (Fig. S5). […]
the procedure described above. Results were analyzed using the EnSpire label-free user interface software. […]
coated with CypA wild type with and without the CsA. Results were analyzed using the EnSpire label-free user interface software. […]
(B). Results were analyzed using the EnSpire label-free user interface software. […]

[2] = tested on: CypA-CsA preformed complex; experiment: ITC competition: AIF(370-394) titrated onto CypA-CsA preformed complex; assay type: binding; conditions: AIF(370-394) 5 to 500 μM titrated onto CypA-CsA complex, 25 °C
Protocol: Figure 5 ITC binding assay. […] The bottom panels show the integrated heat of each injection after correction for the heat of dilution of ligands. Curves represent the best fit to a single-site binding model. (C, D) ITC competition assays.
ITC experiments were performed at 25 °C using a MicroCal ITC200 (GE Healthcare Bio-Sciences AB, Sweden). Protein and peptide samples were dialyzed in phosphate saline buffer (PBS 1X) containing 1 mM DTT, pH 7.4. […] Data were analyzed using the “Origin” software (MicroCal). The dissociation constant (KD), molar binding stoichiometry (n) and the binding enthalpy (ΔH), entropy (ΔS) and Gibbs free energy (ΔG) were determined by fitting the binding isotherm to a one-site model with MicroCal Origin software. All ITC experiments were performed in triplicate.

CypA/CsA complex = experiment: NMR competition with preformed CypA/CsA complex; assay type: binding; conditions: AIF(370-394) gradually added to preformed CypA/CsA complex
CypA and CypA^R55A [3] = experiment: Competition of CypA/substrate complex formation (fluorescence quenching); assay type: binding
From the text: Results are means of triplicates.
as §8

CypA [4] = molecular target: T2, CypA (Homo sapiens, UniProt P62937); conditions: binding to CypA; cited from earlier work
T2 construct: His tag (6His); made in house
From the text: CSPs were quantified in terms of ΔδHNavs and classified as strong, medium and weak (see Methods section for details).

AIF(Δ1-121)/CypA complex = tested on: AIF(Δ1-121)/CypA complex; parameters: method as in PMID 24434516; conditions: cited from earlier work
neuronal cells = tested on: neuronal cells; parameters: method as in PMID 24434516; conditions: cited from earlier work
CypA [5] = molecular target: T2, CypA; experiment: Fluorescence quenching binding of FRET substrate; conditions: excitation 340 nm, emission 510 nm
From the text: probe clusters) and CS003 (11 probe clusters), CS004 (7 probe clusters), CS005 (4 probe clusters), CS006 (4 probe clusters) and CS007 (4 probe clusters), CS008 (3 probe clusters), CS009 (2 probe clusters). The top scoring ligand-binding site identified by FTMap on CypA is the active site, while the second, CS001 (Figure S7) is constituted by loops connecting α1-β3 (G42-C52) and a portion of the loop connecting β4-β5 (G65-S99), close to the catalytic site of CypA within the same interaction surface identified by NMR studies and mapped by trypsin MS-based foot-printing and contains 19 probe clusters. […]
Fluorescence-based assays
Fluorescence quenching assays were performed using the FRET substrate Ac-EK(Dabcyl)PPFAE(EDANS)KA-NH2 (MW 1556.2 amu) reported in literature.6 At 0.23 ng/μL (0.15 μM) the substrate provides a significant fluorescence emission at 510 nm compared to the buffers used in the assay (PBS 1X) (Figure S8A). […] Kinetic constants were determined by fitting data of fluorescence maxima at 510 nm of EDANS upon protein additions. […]
(Fig. S8B, red and blue lines, respectively) on the CypA/substrate complex formation were determined using a 10-fold excess (1.5 μM) of compounds. […]
Figure S8. Binding assay based on fluorescence quenching. (A) Fluorescence emission spectrum of CypA substrate. Samples were excited at 340 nm, and the emission in the range of 450-600 nm was measured. […]

T1 sequence (O95831 370-394 limits assumed): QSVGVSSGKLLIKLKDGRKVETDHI
AIF(Δ1-121), sequence (O95831 122-613, stated change not applied): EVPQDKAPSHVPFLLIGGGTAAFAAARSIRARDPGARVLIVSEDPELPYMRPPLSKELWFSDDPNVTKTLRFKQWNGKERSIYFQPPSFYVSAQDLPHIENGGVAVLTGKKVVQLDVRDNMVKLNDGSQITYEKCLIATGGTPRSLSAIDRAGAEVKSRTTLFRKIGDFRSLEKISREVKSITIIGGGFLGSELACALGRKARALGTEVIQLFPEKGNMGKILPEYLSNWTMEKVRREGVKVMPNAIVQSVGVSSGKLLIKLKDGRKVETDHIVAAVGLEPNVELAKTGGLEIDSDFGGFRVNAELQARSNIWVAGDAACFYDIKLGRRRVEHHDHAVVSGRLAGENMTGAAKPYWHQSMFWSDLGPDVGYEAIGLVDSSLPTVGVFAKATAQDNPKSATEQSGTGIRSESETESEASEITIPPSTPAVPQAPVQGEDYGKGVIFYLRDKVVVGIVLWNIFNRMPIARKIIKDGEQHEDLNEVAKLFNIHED
T2 sequence (P62937 whole entry): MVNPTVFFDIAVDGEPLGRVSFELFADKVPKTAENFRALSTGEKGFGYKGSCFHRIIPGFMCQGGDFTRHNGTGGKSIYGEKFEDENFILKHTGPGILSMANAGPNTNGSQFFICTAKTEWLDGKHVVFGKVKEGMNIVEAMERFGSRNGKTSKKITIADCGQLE

Compound: CypA wild type: His-tagged CypA protein
- Kd (AIF(370-394); full-length protein: CypA / CypAR55A immobilized (200 µg/mL, sodium acetate pH 5.5), AIF(370-394) added at several concentrations, means of triplicates (Fig. S7A)): 3000 ± 600 nM

Compound: CypA(55-69)R69: CypA(55-69) with R69 replaced by alanine (RIIPGFMCQGGDFTA)
- KD (AIF(370-394)): No binding
- binding / affinity for AIF(370-394), in words (AIF(370-394)): completely abrogated the binding to both the AIF forms
- binding / affinity for AIF(Δ1-121), in words (AIF(Δ1-121); EnSpire label-free): completely abrogated the binding to both the AIF forms

Compound: CC[C@H](C)[C@H](NC(=O)[C@H](Cc1c[nH]cn1)NC(=O)[C@H](CC(=O)O)NC(=O)[C@@H](NC(=O)[C@H](CCC(=O)O)NC(=O)[C@@H](NC(=O)[C@H](CCCCN)NC(=O)[C@H](CCCNC(=N)N)NC(=O)CNC(=O)[C@H](CC(=O)O)NC(=O)[C@H](CCCCN)NC(=O)[C@H](CC(C)C)NC(=O)[C@H](CCCCN)NC(=O)[C@@H](NC(=O)[C@H](CC(C)C)NC(=O)[C@H](CC(C)C)NC(=O)[C@H](CCCCN)NC(=O)CNC(=O)[C@H](CO)NC(=O)[C@H](CO)NC(=O)[C@@H](NC(=O)CNC(=O)[C@@H](NC(=O)[C@H](CO)NC(=O)[C@H](CCC(N)=O)NC(C)=O)C(C)C)C(C)C)[C@@H](C)CC)C(C)C)[C@@H](C)O)C(N)=O [AIF(370-394)]
- binding to CypA versus CypA^R55A (CypA and CypA^R55A [1]): bound CypA and CypA^R55A in a similar way
- heat exchange [2]: no apparent heat exchange was observed
- AIF(370-394) interaction with CypA after CsA binding (CypA/CsA complex): CsA binding to CypA did not fully abrogate the AIF(370-394) interaction with CypA
- effect on CypA and CypA^R55A binding to substrate (CypA and CypA^R55A [3]; 10-fold excess (1.5 μM) of compound, fluorescence quenching, 510 nm, triplicates): unable to prevent the binding of both CypA and CypA^R55A to the substrate
- effect on enzyme-substrate recognition (CypA and CypA^R55A [3]; larger excess of AIF(370-394), not shown): does impair the enzyme-substrate recognition
- KD, in words (CypA [4]): low micromolar range
- inhibition of AIF(Δ1-121)/CypA complex formation in vitro (AIF(Δ1-121)/CypA complex): able to inhibit the AIF(Δ1-121)/CypA complex formation in vitro
- neuroprotection (neuronal cells; AIF(Δ1-121)/CypA-mediated glutamate-induced cell death): pronounced neuroprotection
- nuclear translocation of AIF and CypA (neuronal cells): blocking the nuclear translocation of the two proteins

Compound: Ac-EK(Dabcyl)PPFAE(EDANS)KA-NH2 (SMILES CC(=O)N[C@@H](CCC(=O)O)C(=O)N[C@@H](CCCCNC(=O)c1ccc(N=Nc2ccc(N(C)C)cc2)cc1)C(=O)N1CCC[C@H]1C(=O)N1CCC[C@H]1C(=O)N[C@@H](Cc1ccccc1)C(=O)N[C@@H](C)C(=O)N[C@@H](CCC(=O)NCCNc1cccc2c(S(=O)(=O)O)cccc12)C(=O)N[C@@H](CCCCN)C(=O)N[C@@H](C)C(N)=O) [CypA substrate, FRET substrate of CypA, MW 1556.2 amu]
- Δfluorescence emission vs buffer (CypA [5]): 319 a. u.

Compound: AIF(Δ1-121): apoptogenic (pro-apoptotic) form of AIF
- binding to CypA versus CypA^R55A (CypA and CypA^R55A [1]): bound CypA and CypA^R55A in a similar way

Now from value to compound:

- KD (AIF(370-394)): No binding
- binding / affinity for AIF(370-394), in words (AIF(370-394)): did not interact with AIF(370-394)
- KD (AIF(Δ1-121)): No binding
Compound: CypA(154-165): CypA-derived synthetic peptide, residues 154-165 (KKITIADCGQLE)

- KD (AIF(370-394)): No binding
- binding / affinity for AIF(370-394), in words (AIF(370-394)): did not interact with AIF(370-394)
- KD (AIF(Δ1-121)): No binding
Compound: CypA(136-150): CypA-derived synthetic peptide, residues 136-150 (MNIVEAMERFGSRNG)

- KD (AIF(370-394)): No binding
- KD (AIF(Δ1-121)): No binding
Compound: CypA(83-90): CypA-derived synthetic peptide, residues 83-90 (FEDENFIL)
